Tested on: peptide library, one residue held at a place counted from the S/T acceptor
Experiment: relative phosphorylation of the sub-library (ratio to the mean residue at this position); higher = residue favoured
Summary of the method: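 Relative sub-library phosphorylation is a ratio to the mean residue at the same position. Purified recombinant kinases were incubated under kinase-specific conditions with biotinylated degenerate peptide sub-libraries, each fixing one residue at one position around a central Ser/Thr, using 50 μM peptide and 50 μM ATP spiked with γ-32P-ATP for 90 min. Spots captured on streptavidin membranes were phosphorimaged and quantified by densitometry.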

Sequence of CLK4, construct: aa128-481, human (Q9HAZ1 128-481, looked up): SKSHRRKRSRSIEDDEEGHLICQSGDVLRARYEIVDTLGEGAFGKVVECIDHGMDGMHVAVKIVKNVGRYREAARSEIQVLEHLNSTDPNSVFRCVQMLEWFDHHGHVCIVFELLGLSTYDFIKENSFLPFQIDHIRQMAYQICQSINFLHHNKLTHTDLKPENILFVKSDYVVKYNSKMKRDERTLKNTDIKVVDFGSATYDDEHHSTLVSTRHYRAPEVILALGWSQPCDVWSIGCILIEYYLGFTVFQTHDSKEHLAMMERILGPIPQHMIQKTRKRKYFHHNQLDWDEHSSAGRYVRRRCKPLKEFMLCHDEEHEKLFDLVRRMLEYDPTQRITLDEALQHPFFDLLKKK

CLK4, construct: aa128-481, human (from UniProt Q9HAZ1)
relative phosphorylation
Conditions	at +1	at +2	at +3	at +4	at -1	at -2	at -3	at -4	at -5
A fixed	0.617	1.09	0.764	0.712	0.792	1.63	0.609	0.923	0.926
D fixed	0.293	0.989	0.691	1.07	0.403	0.553	0.453	0.649	0.735
E fixed	0.565	0.943	0.592	1.1	0.48	1.52	0.374	0.721	0.595
F fixed	0.435	0.928	0.771	0.91	0.705	0.337	0.327	0.858	1.39
G fixed	0.628	1.04	0.925	0.889	0.975	0.943	0.553	1.09	1.02
H fixed	0.7	1.28	1.1	1.06	1.18	0.546	0.709	0.979	1.05
I fixed	1	0.795	0.61	0.869	0.55	0.343	0.332	0.857	0.786
K fixed	0.807	1.36	2.5	1.26	2.09	0.978	2.16	1.72	1.47
L fixed	0.784	0.877	0.731	0.8	0.935	0.461	0.394	0.781	0.891
M fixed	0.727	0.837	0.717	1.02	1.04	0.443	0.429	0.884	0.69
N fixed	0.498	0.804	0.822	0.935	0.865	0.42	0.476	0.807	0.881
P fixed	5.64	1.21	2.04	0.901	1	0.453	0.405	0.806	0.909
Q fixed	0.793	0.929	0.795	1.07	1.12	0.717	0.509	0.839	0.827
R fixed	0.853	1.33	1.7	1.28	2.36	6.56	8.11	2.25	1.82
V fixed	1.59	1.04	0.67	0.772	0.704	0.386	0.331	0.755	0.771
W fixed	0.486	0.754	0.763	1.25	0.895	0.348	0.429	1.1	1.24
Y fixed	0.574	0.792	0.8	1.1	0.89	0.356	0.399	0.973	1
pThr fixed	0.796	1.92	0.773	2.01	0.343	0.467	0.603	0.846	0.81
pTyr fixed	0.516	0.647	1.52	1.16	0.546	0.295	0.356	0.732	0.938

Reference: the supplement of paper PMC9876800
